Paper PMC2816692, “Structural and Biochemical Characterization of SrcA, a Multi-Cargo Type III Secretion Chaperone in Salmonella Required for Pathogenic Association with a Host” (PLoS Pathogens, 2010)

Target: the molecule itself
Experiment: SEC; SrcA alone, 200 µl at 1.1 mg/ml; Superdex S200 10/300GL; 20 mM Tris pH 7.5, 200 mM KCl

B1: His-tagged SrcA (SsrB-regulated chaperone A, STM2138) (natural protein)
chain: MYSRADRLLRQFSLKLNTDSIVFDENRLCSFIIDNRYRILLTSTNSEYIMIYGFCGKPPDNNNLAFEFLNANLWFAENNGPHLCYDNNSQSLLLALNFSLNESSVEKLECEIEVVIRSMENLYHILQDKGITLDTDYT
notes: SrcA (STM2138), type III secretion chaperone of Salmonella enterica serovar Typhimurium; the srcA gene was amplified from chromosomal DNA; STM numbers count on the LT2 genome; Dimer by crystal structure and gel filtration; source: E. coli Rosetta (DE3), purified (nickel-chelating resin, Mono-Q anion exchange); not shown: His6, C-terminal, kept
stoichiometry N: 2
